# Assay results taken from paper PMC11142733, “IgG hexamers initiate complement-dependent acute lung injury” (The Journal of Clinical Investigation, 2024).
# Like-named read-outs stand apart in the source and are kept apart here.
# T1: D^d MHC class I monomer presenting IGPGRAFYA (mouse | )
# T1 chain 1: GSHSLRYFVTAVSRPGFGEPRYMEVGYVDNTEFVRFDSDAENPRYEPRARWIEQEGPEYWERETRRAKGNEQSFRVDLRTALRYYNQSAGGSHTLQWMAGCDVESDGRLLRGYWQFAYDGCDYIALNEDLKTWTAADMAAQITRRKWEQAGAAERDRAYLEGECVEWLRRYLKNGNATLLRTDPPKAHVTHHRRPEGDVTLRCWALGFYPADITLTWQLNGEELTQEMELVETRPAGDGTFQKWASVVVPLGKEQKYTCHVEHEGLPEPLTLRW
# T1 chain 2: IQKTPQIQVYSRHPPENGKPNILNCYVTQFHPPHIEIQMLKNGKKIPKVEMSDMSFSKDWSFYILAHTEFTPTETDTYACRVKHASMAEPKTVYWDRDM
# T1 chain 3: IGPGRAFYA
# T2: K^d MHC class I monomer presenting VYLKTNVFL (mouse | )
# T2 chain 1: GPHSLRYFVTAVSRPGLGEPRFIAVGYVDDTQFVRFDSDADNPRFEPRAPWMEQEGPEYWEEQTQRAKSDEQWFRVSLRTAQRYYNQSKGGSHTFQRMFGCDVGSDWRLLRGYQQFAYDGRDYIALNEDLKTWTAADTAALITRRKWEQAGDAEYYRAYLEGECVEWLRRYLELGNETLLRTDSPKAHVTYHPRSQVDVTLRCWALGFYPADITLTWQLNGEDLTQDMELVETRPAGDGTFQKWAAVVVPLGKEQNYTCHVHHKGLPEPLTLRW
# T2 chain 2: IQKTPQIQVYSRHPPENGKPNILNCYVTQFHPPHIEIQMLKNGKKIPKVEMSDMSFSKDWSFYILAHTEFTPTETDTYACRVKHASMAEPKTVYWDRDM
# T2 chain 3: VYLKTNVFL
# T3: K^b MHC class I monomer presenting SIINFEKL (mouse | )
# T3 chain 1: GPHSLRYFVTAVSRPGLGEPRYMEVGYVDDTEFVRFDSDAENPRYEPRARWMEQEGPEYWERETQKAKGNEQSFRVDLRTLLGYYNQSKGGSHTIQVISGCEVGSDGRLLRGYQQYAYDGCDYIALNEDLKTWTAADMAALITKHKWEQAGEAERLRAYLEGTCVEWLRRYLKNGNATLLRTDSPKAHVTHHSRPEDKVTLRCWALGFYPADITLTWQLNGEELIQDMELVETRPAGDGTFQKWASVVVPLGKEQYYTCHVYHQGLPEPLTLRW
# T3 chain 2: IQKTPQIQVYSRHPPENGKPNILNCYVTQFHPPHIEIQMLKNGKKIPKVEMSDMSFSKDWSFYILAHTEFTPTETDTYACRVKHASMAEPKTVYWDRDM
# T3 chain 3: SIINFEKL
# Tests used:
# [1] = target: RGY-mutated 34-1-2S (RGY-hIgG1-34-1-2S) (mouse | human); experiment: negative stain electron microscopy; antibody samples diluted to 0.01 mg/mL in 25 mM HEPES and 100 mM NaCl, on carbon-coated grids, stained with 0.75% uranyl formate; monomer to hexamer in solution
# [2] = target: T4, D^b MHC class I monomer presenting … (Mus musculus, H-2b haplotype (H-2Db), UniProt P01899;P01887); experiment: SPR; mAbs bound via amine coupling to SensEye G Easy2Spot sensors; serial dilutions (0.5–200 nM) of MHC class I monomers injected; in triplicate; IBIS MX96 SPR imager; conditions: both partners purified
# T4 construct: mouse MHC class I heavy chain H-2D^b of the bought monomer; beta-2-microglobulin of the bought monomer; presented peptide; Soluble monomer from a supplier; copies: + +
# [3] = target: T5, K^b MHC class I monomer presenting SIINFEKL (Mus musculus, H-2b haplotype (H-2Kb), UniProt P01901;P01887); experiment: as above; conditions: both partners purified
# T5 construct: mouse MHC class I heavy chain H-2K^b of the bought monomer; beta-2-microglobulin of the bought monomer; presented peptide; Soluble monomer from a supplier; also called K^b MHC class I antigen from H2^b mice; copies: + +
# [4] = target: T6, K^d MHC class I monomer presenting … (Mus musculus, H-2d haplotype (H-2Kd), UniProt P01902;P01887); experiment: as above; conditions: both partners purified
# T6 construct: mouse MHC class I heavy chain H-2K^d of the bought monomer; beta-2-microglobulin of the bought monomer; presented peptide; Soluble monomer from a supplier
# [5] = target: T1, D^d MHC class I monomer presenting …; experiment: SPR
# [6] = target: T2, K^d MHC class I monomer presenting …; experiment: SPR
# [7] = target: T3, K^b MHC class I monomer presenting …; experiment: SPR
# [8] = target: T6, K^d MHC class I monomer presenting …
binder,measurement,setting,value
"RGY-mutated 34-1-2S (RGY-hIgG1-34-1-2S) (antibody, V domains shown) VH: EVQLQQSGAEFVRPGASVKLSCTASGFNLKDDYMFWVKQRPEQGLEWIGWIAPDNGDTEYASKFQGKATITADTSSNTAYVQLSSLTSEDTAVYYCTTWGYYSYVNYWGQGTTLTVSS VL: DIQMTQSPSSLSASLGERVSLTCRASQDIGSNLNWLQQEPDGTIKRLIYATYSLDSGVPKRFSGSRSGSDYSLTISSLESEDFVDYYCLQYASSPYTFGGGTKLEIK",stoichiometry N,[1],6
"MHC class I alloantibody 34-1-2S (mouse IgG2a) (antibody, V domains shown, heavy-chain variable region of 34-1-2S; mouse IgG2a heavy-chain constant region; light chain variable region of 34-1-2S; light-chain constant region of the mouse antibody; Mouse IgG2a; also called anti-MHC class I clone 34-1-2S; control 34-1-2S; source: bought: Bio X Cell, catalog no; BE0180) VH: EVQLQQSGAEFVRPGASVKLSCTASGFNLKDDYMFWVKQRPEQGLEWIGWIAPDNGDTEYASKFQGKATITADTSSNTAYVQLSSLTSEDTAVYYCTTWGYYSYVNYWGQGTTLTVSS VL: DIQMTQSPSSLSASLGERVSLTCRASQDIGSNLNWLQQEPDGTIKRLIYATYSLDSGVPKRFSGSRSGSDYSLTISSLESEDFVDYYCLQYASSPYTFGGGTKLEIK",binding result,[2],no binding (tested: 0.5–200 nM)
same,binding result,[3],binds
same,binding result,[4],binds
same,Kd,[5],30 nM
same,Kd,[6],9.1 nM
same,Kd,[7],2490 nM
"Kd1 (antibody, V domains shown) VH: EVLLVESGGDLVKPGGSLKLSCAASGFTFRTYAMSWVRQTPEKRLEWVATIGDDGSYTFYPDNVKGRFTISRDNAKNNLYLQMRHLKSEDTAIYFCARDGLFAYWGQGTLVTVSA VL: DIQMTQSPSSLSASLGGKVTITCKASQDIKKNIAWYQYKPGKGPRLLIHYTSTLQPGISSRFSGSGSGRDYSFSISNLEPEDIATYYCLQYDSLLYTFGGGTKLEIK",binding result,[8],binds
